# *1 amine or outer side, *2 acyl side, *3 side chain or, on linkers, in order; H or OH if unused. Where a SMILES comes first, the peptide text is derived from it. [ ]: non-standard residue; d: D form. The star is where a group is joined. X1 = O=C(O)CN1CCN(CC(=O)O)CCN(CC(=O)NCCCOCCOCCOCCCN*)CCN(CC(=O)O)CC1; DOTA = O=C(O)CN1CCN(CC(=O)O)CCN(CC(=O)*)CCN(CC(=O)O)CC1; NH(CH2)9CO = O=C(CCCCCCCCCN[*:1])[*:2]; Hyp = O=C(O)[C@@H]1C[C@@H](O)CN1; Tic = O=C(O)[C@@H]1Cc2ccccc2CN1; Cha = N[C@@H](CC1CCCCC1)C(=O)O; Cit = NC(=O)NCCC[C@H](N)C(=O)O; Suc = O=C(CCC(=O)[*:2])[*:1]; Octanoyl = CCCCCCCC(=O)*; Ahx = NCCCCCC(=O)O
# Key:
# [1] = tested on: DU4475/A549 xenograft model; assay: in vivo; details: mouse
# From the text: (§1) For in vivo experiments, at least 8-week-old female athymic NMRI-Foxn1^nu /Foxn1^nu mice (Janvier Labs, Saint-Berthevin, France) were used. Animal care followed institutional guidelines and all experiments were approved by local animal research authorities. For the generation of tumor xenografts, 5 x 10^6 cells of both DU4475 and A549 cells were inoculated subcutaneously into the right and left shoulder, respectively (1:1 phosphate-buffered saline [PBS]/Matrigel Basement Membrane Matrix High Concentration, Corning, Corning, USA). Part of the animals received SW13 lung cancer cells as a CMKLR1-negative control tumor. For the analysis of biodistribution, only data of […] and A549 xenograft tumors are used. Tumors were allowed to grow for two to four weeks (tumor volume > 100 mm^3) after cell inoculation.
# (§2) Radiolabeling experiments were performed on a Modular Lab PharmTracer synthesis module (Eckert & Ziegler, Berlin, Germany) which allows fully automated cassette-based labeling of gallium tracers utilizing a pharmaceutical grade ^68Ge/^68Ga generator (GalliaPharm, 1.85 GBq, good manufacturing practice [GMP]-certified; Eckert & Ziegler GmbH, Berlin, Germany). Cassettes were GMP-certified and sterile. They were used without pre-conditioning of the cartridges. The gallium generator was eluted with aqueous HCl (0.1 M, 7 mL) and the eluate was purified on an ion-exchange cartridge followed by elution using 1 mL of 0.1 M HCl in acetone. The peptide-DOTA conjugate (50 µg from a stock solution 1 mg/mL in 10% dimethyl sulfoxide [DMSO] in water) was mixed with 500 µL 0.1 M HEPES buffer (pH 7) and heated for 500 seconds at 95 °C. After the reaction, the mixture was passed through a C-18 cartridge for purification and the tracer was eluted from the cartridge with ethanol. In order to control the quality of radiolabeling, the radiochemical yield, purity, and specific activity for all five peptide-DOTA conjugates and each individual labeling experiment was determined. Overall, a radiochemical yield of 82.1% ± 6.7%, a radiochemical purity of 98.1 ± 4.6% and a molar activity of 8.6 GBq/µmol ± 2.7 GBq/µmol was achieved (Table S1). Before animal injection, the activity was equilibrated to neutral pH using 1 M sodium hydrogen carbonate. It was further diluted with saline to ≤ 10% ethanol.
# (§3) Tumor-bearing mice were injected with approximately 10 MBq of ^68Ga-labeled DOTA-peptide or 1 MBq of ^177Lu-labeled DOTA-peptide to the tail vein via a catheter. Mice were sacrificed and dissected one or two hours after injection. Tumor, blood, stomach, pancreas, small intestine, colon, liver, spleen, kidney, heart, lung, muscle and femur samples were weighed and uptake of radioactivity was measured by a gamma counter. To determine the effect of unlabeled ligand on the tumor uptake, 200 nmol CG34 peptide (100-fold excess) was co-injected.
# in vivo = details: female, mouse, iv, 10 MBq, total radioactivity
# From the text: as §1, §2, §3
# [2] = athymic NMRI-Foxn1^nu/Foxn1^nu, A549 tumor uptake
# [3] = athymic NMRI-Foxn1^nu/Foxn1^nu, DU4475 tumor uptake
# [4] = athymic NMRI-Foxn1^nu/Foxn1^nu, blood uptake
# [5] = athymic NMRI-Foxn1^nu/Foxn1^nu, heart uptake
# [6] = athymic NMRI-Foxn1^nu/Foxn1^nu, kidney uptake
# [7] = athymic NMRI-Foxn1^nu/Foxn1^nu, liver uptake
# [8] = athymic NMRI-Foxn1^nu/Foxn1^nu, lung uptake
# [9] = athymic NMRI-Foxn1^nu/Foxn1^nu, muscle uptake
# [10] = athymic NMRI-Foxn1^nu/Foxn1^nu, spleen uptake
# [11] = athymic NMRI-Foxn1nu/Foxn1nu, colon uptake
# [12] = athymic NMRI-Foxn1nu/Foxn1nu, femur uptake
# [13] = athymic NMRI-Foxn1nu/Foxn1nu, muscle uptake
# [14] = athymic NMRI-Foxn1nu/Foxn1nu, pancreas uptake
# [15] = athymic NMRI-Foxn1nu/Foxn1nu, small intestine uptake
# [16] = athymic NMRI-Foxn1nu/Foxn1nu, spleen uptake
# [17] = athymic NMRI-Foxn1nu/Foxn1nu, stomach uptake
# [18] = athymic NMRI-Foxn1nu/Foxn1nu, tumor-to-blood ratio
# [19] = athymic NMRI-Foxn1nu/Foxn1nu, tumor-to-kidney ratio
# [20] = athymic NMRI-Foxn1nu/Foxn1nu, tumor-to-liver ratio
# [21] = athymic NMRI-Foxn1nu/Foxn1nu, tumor-to-muscle ratio
# [22] = athymic NMRI-Foxn1nu/Foxn1nu, tumor-to-pancreas ratio
SMILES,DU4475 tumor uptake after two hours as % of the 1 h-value [1],higher uptake in CMKLR1-positive DU4475 tumors than in target-negative A549 tumors [1],tissue uptake at 1 h (in vivo; [2]),tissue uptake at 1 h (in vivo; [3]),tissue uptake at 2 h (in vivo; [3]),tissue uptake at 1 h (in vivo; [4]),tissue uptake at 2 h (in vivo; [4]),tissue uptake at 1 h (in vivo; [5]),tissue uptake at 2 h (in vivo; [5]),tissue uptake at 1 h (in vivo; [6]),tissue uptake at 2 h (in vivo; [6]),tissue uptake at 1 h (in vivo; [7]),tissue uptake at 2 h (in vivo; [7]),tissue uptake at 1 h (in vivo; [8]),tissue uptake at 2 h (in vivo; [8]),tissue uptake at 1 h (in vivo; [9]),tissue uptake at 1 h (in vivo; [10]),tissue uptake at 1 h (in vivo; [11]),tissue uptake at 2 h (in vivo; [11]),tissue uptake at 1 h (in vivo; [12]),other results
"C[C@@H](NC(=O)[C@H](Cc1ccccc1)NC(=O)[C@H](CCCNC(N)=O)NC(=O)CNC(=O)[C@@H]1C[C@@H](O)CN1C(=O)[C@H](CC1CCCCC1)NC(=O)[C@H](Cc1ccc(O)cc1)NC(=O)CCCCCCCCCNC(=O)CN1CCN(CC(=O)O)CCN(CC(=O)O)CCN(CC(=O)O)CC1)C(=O)N1Cc2ccccc2C[C@H]1C(=O)N[C@@H](CO)C(=O)O [[^68Ga]Ga-DOTA-ADX-CG34, metal not drawn] ({DOTA}-[NH(CH2)9CO]Y[Cha][Hyp]G[Cit]F[dA][Tic]S-OH)",approx. 68%,2.3 fold,2.7 %ID/g,6.2 %ID/g,4.2 %ID/g,2.8 %ID/g,0.8 %ID/g,2.2 %ID/g,1.2 %ID/g,10.3 %ID/g,5.5 %ID/g,14.2 %ID/g,12.5 %ID/g,7.1 %ID/g,3.9 %ID/g,1.1 %ID/g,7.8 %ID/g,3.2 %ID/g,2.3 %ID/g,1.3 %ID/g,tissue uptake at 2 h (in vivo; [12]): 0.7 %ID/g; tissue uptake at 2 h (in vivo; [13]): 0.6 %ID/g; tissue uptake at 1 h (in vivo; [14]): 1.7 %ID/g; tissue uptake at 2 h (in vivo; [14]): 1.1 %ID/g; tissue uptake at 1 h (in vivo; [15]): 3.8 %ID/g; tissue uptake at 2 h (in vivo; [15]): 4.4 %ID/g; tissue uptake at 2 h (in vivo; [16]): 5.4 %ID/g; tissue uptake at 1 h (in vivo; [17]): 2.2 %ID/g; tissue uptake at 2 h (in vivo; [17]): 1.5 %ID/g; tissue to tissue ratio at 1 h (in vivo; [18]): 3; tissue to tissue ratio at 2 h (in vivo; [18]): 5.7; tissue to tissue ratio at 1 h (in vivo; [19]): 0.8; tissue to tissue ratio at 2 h (in vivo; [19]): 0.8; tissue to tissue ratio at 1 h (in vivo; [20]): 0.4; tissue to tissue ratio at 2 h (in vivo; [20]): 0.3; tissue to tissue ratio at 1 h (in vivo; [21]): 6.3; tissue to tissue ratio at 2 h (in vivo; [21]): 7.2; tissue to tissue ratio at 1 h (in vivo; [22]): 3.9; tissue to tissue ratio at 2 h (in vivo; [22]): 3.9
"C[C@@H](NC(=O)[C@H](Cc1ccccc1)NC(=O)[C@H](CCCNC(N)=O)NC(=O)CNC(=O)[C@@H]1C[C@@H](O)CN1C(=O)[C@H](CC1CCCCC1)NC(=O)[C@H](Cc1ccc(O)cc1)NC(=O)CCCCCNC(=O)CN1CCN(CC(=O)O)CCN(CC(=O)O)CCN(CC(=O)O)CC1)C(=O)N1Cc2ccccc2C[C@H]1C(=O)N[C@@H](CO)C(=O)O [[^68Ga]Ga-DOTA-AHX-CG34, metal not drawn] ({DOTA-Ahx}-Y[Cha][Hyp]G[Cit]F[dA][Tic]S-OH)",approx. 96%,1.7 fold,3 %ID/g,5.1 %ID/g,4.9 %ID/g,1.2 %ID/g,0.4 %ID/g,1.2 %ID/g,1.1 %ID/g,6.5 %ID/g,6.6 %ID/g,2.4 %ID/g,2.4 %ID/g,4.2 %ID/g,2.8 %ID/g,0.7 %ID/g,6.3 %ID/g,2.7 %ID/g,2.6 %ID/g,0.8 %ID/g,"tissue uptake at 2 h (in vivo; athymic NMRI-Foxn1nu/Foxn1nu, A549 tumor uptake): 1.4 %ID/g; tissue uptake at 2 h (in vivo; [12]): 0.7 %ID/g; tissue uptake at 2 h (in vivo; [13]): 0.5 %ID/g; tissue uptake at 1 h (in vivo; [14]): 1 %ID/g; tissue uptake at 2 h (in vivo; [14]): 0.8 %ID/g; tissue uptake at 1 h (in vivo; [15]): 2.1 %ID/g; tissue uptake at 2 h (in vivo; [15]): 2 %ID/g; tissue uptake at 2 h (in vivo; [16]): 5 %ID/g; tissue uptake at 1 h (in vivo; [17]): 1.7 %ID/g; tissue uptake at 2 h (in vivo; [17]): 1.3 %ID/g; tissue to tissue ratio at 1 h (in vivo; [18]): 5.9; tissue to tissue ratio at 2 h (in vivo; [18]): 13.3; tissue to tissue ratio at 1 h (in vivo; [19]): 0.9; tissue to tissue ratio at 2 h (in vivo; [19]): 0.7; tissue to tissue ratio at 1 h (in vivo; [20]): 2.3; tissue to tissue ratio at 2 h (in vivo; [20]): 2.2; tissue to tissue ratio at 1 h (in vivo; [21]): 8.5; tissue to tissue ratio at 2 h (in vivo; [21]): 11.4; tissue to tissue ratio at 1 h (in vivo; [22]): 5.6; tissue to tissue ratio at 2 h (in vivo; [22]): 6.2"
"CSCC[C@H](NC(=O)CNC(=O)[C@@H]1CCCN1C(=O)[C@H](CC1CCCCC1)NC(=O)[C@H](Cc1ccc(O)cc1)NC(=O)CCCCCNC(=O)CN1CCN(CC(=O)O)CCN(CC(=O)O)CCN(CC(=O)O)CC1)C(=O)N[C@@H](Cc1ccc(O)cc1)C(=O)N[C@@H](C)C(=O)N[C@@H](Cc1ccccc1)C(=O)N[C@H](Cc1ccccc1)C(=O)O [[^68Ga]Ga-DOTA-AHX-CG36, metal not drawn] ({DOTA-Ahx}-Y[Cha]PGMYAF[dF]-OH)",,,,,,,,,,,,6.4 %ID/g,4.9 %ID/g,,,,,,,,difference in uptake between target-positive and target-negative tumor [1]: no clear difference in uptake between target-positive and target-negative tumor
"CCCCCCCC(=O)NCCCC[C@H](NC(=O)CN1CCN(CC(=O)O)CCN(CC(=O)O)CCN(CC(=O)O)CC1)C(=O)N[C@@H](Cc1ccc(O)cc1)C(=O)N[C@@H](CC1CCCCC1)C(=O)N1C[C@H](O)C[C@H]1C(=O)NCC(=O)N[C@@H](CCCNC(N)=O)C(=O)N[C@@H](Cc1ccccc1)C(=O)N[C@H](C)C(=O)N1Cc2ccccc2C[C@H]1C(=O)N[C@@H](CO)C(=O)O [[^68Ga]Ga-DOTA-KCap-CG34, metal not drawn] ({DOTA}-K(Octanoyl)Y[Cha][Hyp]G[Cit]F[dA][Tic]S-OH)",approx. 88%,1.4 fold,2.3 %ID/g,3.3 %ID/g,2.9 %ID/g,0.6 %ID/g,0.2 %ID/g,1.1 %ID/g,0.8 %ID/g,5.8 %ID/g,6.5 %ID/g,2.2 %ID/g,1.8 %ID/g,1.7 %ID/g,1.2 %ID/g,0.6 %ID/g,4.9 %ID/g,2.4 %ID/g,1.7 %ID/g,0.6 %ID/g,tissue uptake at 2 h (in vivo; [12]): 0.5 %ID/g; tissue uptake at 2 h (in vivo; [13]): 0.4 %ID/g; tissue uptake at 1 h (in vivo; [14]): 0.9 %ID/g; tissue uptake at 2 h (in vivo; [14]): 0.7 %ID/g; tissue uptake at 1 h (in vivo; [15]): 2.3 %ID/g; tissue uptake at 2 h (in vivo; [15]): 1.9 %ID/g; tissue uptake at 2 h (in vivo; [16]): 4 %ID/g; tissue uptake at 1 h (in vivo; [17]): 1.4 %ID/g; tissue uptake at 2 h (in vivo; [17]): 1.1 %ID/g; tissue to tissue ratio at 1 h (in vivo; [18]): 5.6; tissue to tissue ratio at 2 h (in vivo; [18]): 18.2; tissue to tissue ratio at 1 h (in vivo; [19]): 0.7; tissue to tissue ratio at 2 h (in vivo; [19]): 0.6; tissue to tissue ratio at 1 h (in vivo; [20]): 1.6; tissue to tissue ratio at 2 h (in vivo; [20]): 1.8; tissue to tissue ratio at 1 h (in vivo; [21]): 6.6; tissue to tissue ratio at 2 h (in vivo; [21]): 7.2; tissue to tissue ratio at 1 h (in vivo; [22]): 3.7; tissue to tissue ratio at 2 h (in vivo; [22]): 4.3
"C[C@@H](NC(=O)[C@H](Cc1ccccc1)NC(=O)[C@H](CCCNC(N)=O)NC(=O)CNC(=O)[C@@H]1C[C@@H](O)CN1C(=O)[C@H](CC1CCCCC1)NC(=O)[C@H](Cc1ccc(O)cc1)NC(=O)CCC(=O)NCCCOCCOCCOCCCNC(=O)CN1CCN(CC(=O)O)CCN(CC(=O)O)CCN(CC(=O)O)CC1)C(=O)N1Cc2ccccc2C[C@H]1C(=O)N[C@@H](CO)C(=O)O [[^68Ga]Ga-DOTA-TTDS-CG34, metal not drawn] ({X1-Suc}-Y[Cha][Hyp]G[Cit]F[dA][Tic]S-OH)",,,,,,,,,,,,,,,,,,,,,difference in uptake between target-positive and target-negative tumor [1]: no clear difference in uptake between target-positive and target-negative tumor

# — paper PMC6771245, “CMKLR1-targeting peptide tracers for PET/MR imaging of breast cancer” (Theranostics, 2019)
